Data as given in patent US11440938B2, “Stabilized minimal coiled-coil mimetics” (NEW YORK UNIVERSITY, priority 2015, dated 2022).
“And” between values parts separate entries of the source, which are not always exact repeats. Identical values can stand only once. Like-named read-outs stand apart in the source and are kept apart here. Bridges are numbered along the chain shown (N, C = ends). Where no end group is shown, it is not given here.

B1: NHR2: native GST-tagged NHR2 coiled-coil domain (482-551) of AML1-ETO, expressed in E. coli (protein, UniProt Q06455 482-551, looked up, fragment)
chain: ERAKMERTVAEAKRQAAEDALAVINQQEDSSESCWNCGRKASETCSGCNTARYCGSFCQHKDWEKHHHIC
modifications: NHR2 coiled-coil domain GST tag
notes: native GST-tagged NHR2 coiled-coil domain (482-551) of AML1-ETO, expressed in E. coli

Legend:
[1] = Circular dichroism spectroscopy of helical conformational stability; format: physicochemical; settings: 50 mM aqueous KF, pH 7.4, 20 μM peptide
[2] = target: T1, fluorescein-labeled N2B peptide (NHR2-binding motif of E-proteins) (Homo sapiens, UniProt Q99081); assay: Fluorescence polarization direct binding assay with fluorescein-labeled N2B peptide (flu-N2B); settings: 100 nM flu-N2B, 25° C., 10 mM Tris 20 mM NaCl pH 7.4, 0.1% pluronic F-68, triplicate, listed as NHR2482-551, read-out: Kd (binding affinity to fluorescein-labeled N2B peptide)
[3] = target: T1, fluorescein-labeled N2B peptide (NHR2-binding motif of E-proteins); settings: Sun et al., Nature 500:93 (2013); read-out: KD with flu-N2B, literature reported; cited from earlier work

Molecule	Helical character by CD (in words) [1]	Minimum at 222/208 (ratio of CD bands) [1]	|θ222| (CD ellipticity at 222 nm) [1]	Kd [2]	Kd [3]
ECAELEWRLGGSSGGLAERIARCR (disulfide 2-23; not fully specified (N-terminus, C-terminus)) [AB-3]	did not provide significant helical stabilization	0.62	9460		
cyclo(GGSSGGELAELEWRLGGSNGGLAERIARLR (macrocyclic; Cyclic peptide AB-2; (1)..(1) Position 1 and 30 are linked by a peptide bond to form a cyclic peptide; (30)..(30) Position 1 and 30 are linked by a peptide bond to form a cyclic peptide)	minimal helicity	0.62	8950		
Ac-ELAELEWRL-NH2	nonhelical signatures				
AB-1: HBS-A helix joined to peptide B by a GGSSGG linker; N-terminal HBS constraint (SEQ ID NO:3) (XELXELEWRLGGSSGGLAERIARLR; not fully specified; HBS constraint; Hydrogen bond surrogate peptide AB-1; (1)..(1) Xaa at position 1 is pentenoic acid; (4)..(4) Xaa at position 4 is N-allylalanine)	weakly helical signature	0.73	8475		
Ac-LWERIARLR-NH2 [B]	nonhelical signatures				
B1				356 µM and 363 µM	380 ± 18 µM
